Publication PMC6404747

Biological target: Smurf (UniProt Q9V853)
Test: co-IP Myc-Smo / Fg-Smurf
Conditions: reference: wild-type Myc-Smo plus Hh; sites S667,S687,S740

Smoothened (Smo) (from UniProt P91682) Myc-SmoSA plus Hh
binding against the reference: stronger
